Assay results as given in patent US20090175974A1.

Target: TmCad1(EC12-cyto), partial Tenebrio molitor cadherin from extracellular domain 12 through the end of the cytoplasmic domain, expressed on insect cells (Tenebrio molitor)
Assay: cell-based or functional assay

Question: For “Cry3Aa protoxin purified from sporulated cultures of Bacillus thuringiensis var. tenebrionis (from UniProt P0A379 1-644)”, which cytotoxicity (propidium iodide staining of GFP-positive transfected Hi5 cells, flow cytometry) is on record?
Answer: Its cytotoxicity (propidium iodide staining of GFP-positive transfected Hi5 cells, flow cytometry) is 25%.

Question: What about the cytotoxicity (propidium iodide staining of GFP-positive transfected S2 cells, flow cytometry) of the same substance?
Answer: The cytotoxicity (propidium iodide staining of GFP-positive transfected S2 cells, flow cytometry) was 40%.
